Results as given in US20180305451A1 (COMPUGEN, published 2018).
Positions count from the first letter of the chain named.

T1: human HIDE1 (human, UniProt A8MVS5 20-230)
T1 construct: Endogenous on U937, HL-60, THP-1 cells, blood monocytes, AML blasts and dendritic cells; also called C19orf38; hHIDE1
T1 sequence: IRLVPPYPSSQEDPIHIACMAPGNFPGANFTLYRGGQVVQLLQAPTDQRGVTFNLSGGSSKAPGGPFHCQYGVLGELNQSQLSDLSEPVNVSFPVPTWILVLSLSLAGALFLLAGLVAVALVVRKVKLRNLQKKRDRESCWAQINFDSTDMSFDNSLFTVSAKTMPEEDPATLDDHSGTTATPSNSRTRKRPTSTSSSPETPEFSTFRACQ

T2: human HIDE1-flag (human, UniProt A8MVS5 20-230)
T2 construct: Over-expressed on HEK293, SK-MEL-5, CHO-S and CHO-S OKT3 cells (pMSCV or pcDNA3.1); whole cell extracts in WB; Entry includes the signal peptide; also called hHIDE1 Flag
T2 sequence: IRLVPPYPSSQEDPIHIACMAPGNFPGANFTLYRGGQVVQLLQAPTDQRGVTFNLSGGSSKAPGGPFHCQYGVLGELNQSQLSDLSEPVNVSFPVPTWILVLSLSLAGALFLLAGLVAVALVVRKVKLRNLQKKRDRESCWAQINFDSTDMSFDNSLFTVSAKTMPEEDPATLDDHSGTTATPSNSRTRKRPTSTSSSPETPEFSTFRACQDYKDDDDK

T3: mouse HIDE1 (mouse, UniProt Q75VT8 22-222)
T3 construct: Endogenous on EL4, YAC-1, J774A.1/J774A.2 cells; also called AB124611; mHIDE1
T3 sequence: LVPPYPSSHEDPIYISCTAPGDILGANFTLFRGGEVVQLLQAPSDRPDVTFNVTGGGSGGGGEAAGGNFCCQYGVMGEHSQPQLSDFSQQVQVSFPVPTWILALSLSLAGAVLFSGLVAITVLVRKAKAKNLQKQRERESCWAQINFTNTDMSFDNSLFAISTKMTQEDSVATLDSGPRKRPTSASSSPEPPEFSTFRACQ

B1: CPA.12.007 human IgG4 (antibody, V domains shown)
VH: EVQLVESGGGVVQPGESLRLSCAASGFTFSSYGFHWVRQSPGEGLEWLAVISYDGTSKSYADSVKGRFTVSRDNSKETLYLQLSSLRREDTALYYCARDTWGYYYGMDVWGQGTTVTVSS
VL: DIQMTQSPSFLSGSVGDRVSISCRASQDIRSHLAWYQRKPGEAPKLLIYTASSLQGGVPLRFSGSGSGTEFTLTISSLQPEDSATYYCQHLHLYPLTFGGGTKLEIKR
notes: also called CPA.12.007-H4
B2: CPA.12.014 human IgG4 (antibody, V domains shown)
VH: QVTLKESGPALVTPTQNLTLTCTVSGGSISSSSYYWGWIRQPPGKGLEWIGSIYYSGSTYYNPSLKSRVTISVDTSKNQFSLKLSSVTAADTAVYYCARRRNSSGWFYFDYWGQGTLVTVSS
VL: QSVLTQPPSVSGAPRQRVTISCSGSRSNIGDNAVNWYQHPPGKAPKLLIYYDDLLPSGVSDRFSGSKSGTSASLAISGLQSEDEADYYCATWDDSLNGHVFGTGTKLTVLG
notes: also called CPA.12.014-H4
B3: CPA.12.009 human IgG4 (antibody, V domains shown)
VH: QMQLVQSGAEVKKPGASVKVSCKASGYTFTTHAFSWVRQAPGLGLEWMGWISTYNGNTKYEQKFQGRVTLTTDSSTNTAYMELRSLRSDDTAVYYCVRDSRAFDVWGQGTMVTVSS
VL: DIQLTQSPSFLSASVGDRVTITCRASQGINSYLAWYQQKPGAAPKLLIYAASTLQSGVPSRFSGSGSGTEFTLTISSLQPEDFATYYCQQLNTYPLIFGQGTRLEIKR
notes: also called CPA.12.009-H4
B4: CPA.12.006 human IgG4 (antibody, V domains shown)
VH: EVQLVESGGGVVQPGRSLRLSCAASGFTFSSFAMHWVRQAPGKGPEWLGIILYEGGHVVYADSVRGRLTISRDNSKNTLYLQMDSLRDEDTAVYYCAKGFYHAFDVWGQGTMVTVSS
VL: QAVLTQPASLSASPGASASLTCTLRSGINVGTYRIYWYQQKPGSPPQYLLRYKSDSDKQQGSGVPSRFSGSKDASANAGILLISGLQSEDEADYYCMIWHSSAWVFGGGTQLTVLG
notes: also called CPA.12.006-H4
B5: CPA.12.012 human IgG4 (antibody, V domains shown)
VH: QVQLVESGGGVVQPGRSLRLSCAASGFTFSSYAMHWVRQAPGKGLEWVAVISYDGSNKYYADSVKGRFTISRDNSKNTLYLQMNSLRAEDTAVYYCARSSGSSWSNIAYWGQGTLVTVSS
VL: QSVLTQPPSVSGAPGQRVTISCIGSSSNIGAGYDVHWYRQLPGTAPKLLIYDNTNRPSGVPDRFSASKSGISASLAITGLQAEDEADYYCQSYDSNLSGVFGGGTQLTVLG
notes: also called CPA.12.012-H4; CPA.12.0012-H4
B6: CPA.12.015 human IgG4 (antibody, V domains shown)
VH: QVQLQESGPGLVKPSETLSLTCTVSGGSISSSSYYWGWIRQPPGKGLEWIGSIYYSGSTHYNPSLKSRVTISVDTSKNQFSLKLSSVTAADTAVYYCARVYYGSGTGGAFDIWGQGTMVTVSS
VL: QSVLTQPPSVSGAPGQRVTISCTGSSSNIGAAYDVHWYQQLPGTAPKLLIYGDTIRPSGVPDRFSGSKSGTSASLAITGLQAEDEADYYCQSYDSSLSGSWVFGGGTQLTVLG
notes: also called CPA.12.015-H4
B7: CPA.12.013 human IgG4 (antibody, V domains shown)
VH: EVQLVETGGGLIQPGRSLRLSCVASDFRFSNHAMHWVRQAPGKELEWVAVISSDGSNRQYAYSVKGRFTISRDNSKNTLYLEMNILGPEDTAVYFCVRSHLGPEWYYGMDVWGQGTTVTVSS
VL: DIQMTQSPSSLSASVGDRVTITCQASHDIRKFLNWYQQHPGKAPKLLIYDAAYSEIGVPSRFSGGGSGTDFTFTINNLQPDDFATYYCQQYESLPFTFGPGTKVDIKR
notes: also called CPA.12.013-H4
B8: CPA.12.008 human IgG4 (antibody, V domains shown)
VH: QVQLQESGPGLVTPSETLSLTCTVSGGSISSVSYYWGWVRQPPGKGLEWIGSIYYSGTTAHNPSLKSRVTMAVDTSKNQFSLSLSSVTAADTAVYFCARGWRYYEDYYFDHWGQGTLVTVSS
VL: AIRMTQSPSSLSASVGDRVTITCQASQDISNYLNWYQQKPGKAPKSLIYAASSLQSGVPSKFSGSGSGTDFTLTISSLQPEDFATYYCQQYYSYPLTFGGGTKVEIKR
notes: also called CPA.12.008-H4
B9: αhHIDE1_AbD25754_hIgG1_Ser_mAb (antibody, V domains shown)
VH: QVQLVQSGAEVKKPGASVKVSCKASGYTFSGYGMHWVRQAPGQGLEWMGIISPSNGNTNYAQKFQGRVTMTRDTSISTAYMELSRLRSEDTAVYYCAREVYYGLDVWGQGTLVTVSS
VL: DIQMTQSPSSLSASVGDRVTITCRASQSISSWLNWYQQKPGKAPQLLIYGASSLQSGVPSRFSGSGSGTDFTLTISSLQPEDFATYYCQQYISIPITFGQGTKVEIK
B10: αhHIDE1_AbD25755_hIgG1_Ser_mAb (antibody, V domains shown)
VH: QVQLVQSGAEVKKPGSSVKVSCKASGGTFSSYAISWVRQAPGQGLEWMGGIVPKFGTAYYAQKFQGRVTITADESTSTAYMELSSLRSEDTAVYYCARENLVYSAIAIWGQGTLVTVSS
VL: B9 VL with S28D, S31N, Q45K, Y91V, I92T, I94T, I96F
B11: αhHIDE1_AbD25753_hIgG1_Ser_mAb (antibody, V domains shown)
VH: EVQLVQSGAEVKKPGESLKISCKGSGYSFTNYWIHWVRQMPGKGLEWMGIIDPGNSFTRYSPSFQGQVTISADKSISTAYLQWSSLKASDTAMYYCARGDGLYGGSDGYSMGGFDNWGQGTLVTVSS
VL: DIQMTQSPSSLSASVGDRVTITCRASQTIWNYLAWYQQKPGKAPKLLIYDASNLQSGVPSRFSGSGSGTDFTLTISSLQPEDFATYYCQQYSHFPHTFGQGTKVEIK
B12: αhHIDE1_AbD25760_hIgG1_Ser_mAb (antibody, V domains shown)
VH: QVQLVQSGAEVKKPGSSVKVSCKASGGTFSDYAINWVRQAPGQGLEWMGGIIPNFGTANYAQKFQGRVTITADESTSTAYMELSSLRSEDTAVYYCARGMRSLGGLSYYFDLWGQGTLVTVSS
VL: B9 VL with S30N, W32Y, Q45K, G50A, S93H, I94Y
notes: also called AB-510; Ab-510

The binders below were run against T1, human HIDE1 (assay: FACS titration on 293T-huHIDE1 cells, human IgG4 (preliminary FACS KD)).
Procedure: (§1) FACS screening of reformatted IgG4 antibodies: The cell lines described in paragraph [001066] (“FACS screening of PPE”) were mixed with FACS buffer containing the purified anti-HIDE1 IgGs or isotype controls. […] Cells were washed again and fluorescence was detected using an Intellicyt HTFC screening system (Intellicyt). Data were analyzed using FCS Express (DeNovo) and plotted for affinity calculations (KD) in GraphPad Prism (GraphPad Software, Inc.). Note that each anti-HIDE1 antibody was tested over a titration range from 0-80 μg/mL.
(§2) Overview of FACS binding results for human IgG4 antibodies reformatted from Fab screening hits. […] IgGs from the same H-CDR3 family are indicated by the same color, either blue or green. CPA.12.003 & CPA.12.008 have identical heavy chain CDR-3 regions and minor differences in framework regions or other CDRs. The same holds for CPA.12.004 & CPA.12.013. N.B. not binding.
B1 was tested, and the Kd was 14 nM.
B2 showed a Kd of 13 nM.
With B3 the Kd was 1.7 nM.
B4 showed a Kd of 2.5 nM.
Binder B5 has a Kd of 1.3 nM.
For B6, the Kd was 11 nM.
In the case of B7, the Kd is reported as 2.6 nM.
With B8 the Kd was 1.3 nM.

The binders below were run against T2, human HIDE1-flag (assay: FACS titration on CHO-S cells over-expressing human HIDE1 Flag (curves in FIG. 96A)).
Procedure: (§3) FIG. 96: Affinity measurements using FACS application for the anti-human HIDE1 reformatted Fab's on CHO-S cells over-expressing human HIDE1 Flag protein. (A)CHO-S cells over-expressing the human HIDE1 Flag (circle dots) or HEK293 transduced with empty vector (square dots) were analyzed by FACS using Serotec anti-Human HIDE1 reformatted antibodies (1-5) in 7 concentrations-series dilution 1:3, 10-0.01 μg/ml. Detection was carried out using Goat Anti Human-PE secondary Ab. (B) Summary table of Serotec anti-human HIDE1 reformatted antibodies 1-5 FACS analysis, the Geo mean ratio of HEK293 cells over-expressing the human HIDE1 Flag/HEK293 transduced with empty vector and the cross reactive validation, the Geo-mean ratio of HEK293 cells over-expressing the mouse/cyno HIDE1 Flag/HEK293 transduced/transfected with empty vector. And Kd (nM) for each reformatted Fab.
The affinity The affinity measurements of the reformatted Serotec's Ab's (full hIgG1 Abs) against human HIDE1, using FACS application were tested using CHO-S cell over-expressing human HIDE1. CHO-S cells transduced with an empty vector were used as a negative control.
As shown in FIG. 96. the binding of 5 out of 5 anti-human HIDE1 reformatted Ab's (1-5) to the CHO-S cells over-expressing human HIDE1 Flag protein (circle dots) is higher than the binding of these reformatted Ab's to the empty vector cells (square dots). Two of the five antibodies (2 and 3) reaches saturation at the concentrations that were measured. The Kd value and R square are represented in the figure.
B9 gave a Kd of 9.85 nM.
B10 showed a Kd of 45.4 nM.
Binder B11 has a Kd of 10.8 nM.
B12 showed a Kd of 96.7 nM.

Each binder was assayed against T2, human HIDE1-flag (assay: FACS, Geo mean ratio of HEK293 cells over-expressing human HIDE1 Flag to HEK293 empty vector, antibody 10 ug/ml).
Procedure: as §3
The performance of the reformatted Serotec's antibodies against human HIDE1, in FACS application were tested using HEK293 cell over-expressing human HIDE1 Flag, mouse HIDE1 or cyno HIDE1. HEK293 cells transduced/transfected with an empty vector were used as a negative control
With B9 the “rMFI OX/EV, 10ug/ml, hHIDE1” value was 270.
With B10 the “rMFI OX/EV, 10ug/ml, hHIDE1” value was 236.
B11 was tested, and the “rMFI OX/EV, 10ug/ml, hHIDE1” value was 276.
For B12, the “rMFI OX/EV, 10ug/ml, hHIDE1” value was 117.

Each binder was assayed against T3, mouse HIDE1 (assay: FACS on 293T-moHIDE1 cells, human IgG4).
Procedure: as §1, §2
B1: no binding (tested: titration 0-80 µg/mL).
B2: no binding (tested: titration 0-80 µg/mL).
B3: no binding (tested: titration 0-80 µg/mL).
B4: no binding (tested: titration 0-80 µg/mL).
B5: no binding (tested: titration 0-80 µg/mL).
B6: no binding (tested: titration 0-80 µg/mL).
B7: no binding (tested: titration 0-80 µg/mL).
B8: no binding (tested: titration 0-80 µg/mL).
